# Where a chain is given by its changes, count along the chain named.
# T1: human TREM2 (hTREM2), expressed on cells (human, UniProt Q9NZC2 19-230)
# T1 construct: Signal peptide 1-18 as stated left out; On CHO cells co-expressed with hDAP12; on hM2A macrophages endogenous; also called WT-TREM2; CHO-hDAP12-hTREM2
# T1 sequence: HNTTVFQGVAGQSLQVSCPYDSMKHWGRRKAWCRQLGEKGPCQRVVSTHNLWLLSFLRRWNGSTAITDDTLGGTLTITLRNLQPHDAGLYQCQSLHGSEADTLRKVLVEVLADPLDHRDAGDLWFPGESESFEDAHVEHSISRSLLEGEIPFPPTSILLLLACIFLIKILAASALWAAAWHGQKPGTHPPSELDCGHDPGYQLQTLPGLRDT
# T2: cyTREM2 ECD (19-174)-APP-Avi (cynomolgus, UniProt A0A2K5UY34 49-204)
# T2 construct: range 19-174
# T2 sequence: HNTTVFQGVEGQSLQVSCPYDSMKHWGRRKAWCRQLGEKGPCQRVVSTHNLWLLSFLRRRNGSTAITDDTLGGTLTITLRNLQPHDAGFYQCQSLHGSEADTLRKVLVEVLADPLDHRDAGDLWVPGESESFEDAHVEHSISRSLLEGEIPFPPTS
# T3: hTREM2 ECD (19-174)-hFc (human, UniProt Q9NZC2 19-174, biotinylated in the -bio form)
# T3 construct: Plain and biotinylated forms are kept as one molecule; also called hTREM2 ECD (19-174)-hFc-bio; hTREM2 Fc
# T3 sequence: T2 sequence with E10A, R60W, F89L, V125F
# T4: hTREM2 ECD (19-174) (human, UniProt Q9NZC2 19-174)
# T4 construct: Antigen in solution of the SET experiments; also called human TREM2 (SET antigen)
# T4 sequence: T2 sequence with E10A, R60W, F89L, V125F
# T5: cyTREM2 ECD (19-174)-hFc (cynomolgus, UniProt A0A2K5UY34 49-204)
# T5 construct: range 19-174; also called cyTREM2-ECD (19-174)-hFc-bio
# T5 sequence: T2 sequence
# T6: hTREM2 IgSF-hTREM1 stalk-hFc (human, UniProt Q9NP99 135-205, limits assumed, biotinylated in the -bio form)
# T6 construct: domain: stalk region; also called hTREM2 IgSF-T1 stalk-hFc-bio; hTREM2 IgSF-hTREM1 stalk-hFc-bio
# T6 sequence: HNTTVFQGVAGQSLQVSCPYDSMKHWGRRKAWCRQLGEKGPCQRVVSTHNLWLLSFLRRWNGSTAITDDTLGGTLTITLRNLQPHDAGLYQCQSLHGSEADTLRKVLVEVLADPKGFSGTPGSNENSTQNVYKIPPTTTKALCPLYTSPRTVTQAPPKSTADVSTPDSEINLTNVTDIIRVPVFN
# T7: cynomolgus TREM2 (construct not stated) (cynomolgus, UniProt A0A2K5UY34 49-204)
# T7 construct: also called cyno TREM2
# T7 sequence: T2 sequence
# T8: cynomolgus TREM2 expressed on CHO cells (cynomolgus, UniProt A0A2K5UY34 49-260)
# T8 construct: whole, on cells; also called CHO-cyTREM2; CHO-cynoTREM2
# T8 sequence: T1 sequence with A10E, W60R, L89F, F125V, I157V, L193P, Y201H
# T9: mTREM2 ECD (19-168)-His (mouse, UniProt Q99NH8 19-168)
# T9 construct: range 19-168
# T9 sequence (looked up): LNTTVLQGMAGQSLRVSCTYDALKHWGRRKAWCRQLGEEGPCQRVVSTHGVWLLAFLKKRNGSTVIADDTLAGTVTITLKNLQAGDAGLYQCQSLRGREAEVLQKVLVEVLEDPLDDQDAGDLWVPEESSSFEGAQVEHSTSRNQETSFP
# T10: hTREM2 ECD (19-174)-His (human, UniProt Q9NZC2 19-174)
# T10 sequence: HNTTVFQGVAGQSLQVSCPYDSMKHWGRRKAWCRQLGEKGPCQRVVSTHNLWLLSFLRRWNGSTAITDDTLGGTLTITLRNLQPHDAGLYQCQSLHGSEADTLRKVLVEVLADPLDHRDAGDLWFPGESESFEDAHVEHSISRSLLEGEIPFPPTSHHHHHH
# B1: MOR044698 (antibody, V domains shown)
# VH: QVQLVQSGAEVKKPGASVKVSCKASGYTFTGYHMSWVRQAPGQGLEWMGVINPVSGNTVYAQKFQGRVTMTRDTSISTAYMELSRLRSEDTAVYYCARIPSYTYAFDYWGQGTLVTVSS
# VL: DIQMTQSPSSLSASVGDRVTITCRASQDISNYLAWYQQKPGKAPKLLIYRASSLQSGVPSRFSGSGSGTDFTLTISSLQPEDFATYYCFQYRHMPSQTFGQGTKVEIK
# notes: light chain 26); Human IgG vector of the campaign: IgG1f LALA; Matured from MOR042596; VH1B k1; also called MOR44698
# B2: MOR042596 (full IgG) (antibody, V domains shown)
# VH: B1 VH
# VL: DIQMTQSPSSLSASVGDRVTITCRASQDISNYLAWYQQKPGKAPKLLIYRASSLQSGVPSRFSGSGSGTDFTLTISSLQPEDFATYYCQQHGHSPTTFGQGTKVEIKR
# notes: Parental antibody of MOR044698; VH1B k1
# B3: MOR041877 (full IgG) (antibody, V domains shown)
# VH: QVQLKESGPALVKPTQTLTLTCTFSGFSLSTSGVGVSWIRQPPGKALEWLALIFSDHDKIYSTSLKTRLTISKDTSKNQVVLTMTNMDPVDTATYYCARTLIDRSVYFDYWGQGTLVTVSS
# VL: DIVLTQPPSVSGAPGQRVTISCSGSSSNIGHHYVSWYQQLPGTAPKLLIYDNTNRPSGVPDRFSGSKSGTSASLAITGLQAEDEADYYCATWDGLMNSIVFGGGTKLTVLG
# B4: MOR044746 (antibody, V domains shown)
# VH: QVQLQQSGPGLVKPSQTLSLTCAISGDSVSSSSAAWNWIRQSPSRGLEWLGHIGYRSKWYNEYAVSVKSRITINPDTSKNQFSLQLNSVTPEDTAVYYCARGMYGSVPYKEGYYFDIWGQGTLVTVSS
# VL: DIQMTQSPSSLSASVGDRVTITCRASQGISSDLNWYQQKPGKAPKLLIYAASNLQSGVPSRFSGSGSGTDFTLTISSLQPEDFATYYCQQYTDESMTFGQGTKVEIK
# notes: light chain 63); Human IgG vector of the campaign: IgG1f LALA; Matured from MOR042493; VH6 k1; also called MOR44746
# Key:
# [1] = biological target: T1, human TREM2 (hTREM2), expressed on cells; experiment: FACS, hM2A, donor 2
# Procedure: (§1) To determine cellular EC₅₀ of antibodies on hM2A, CHO-hTREM2 or CHO-cynoTREM2, cells were treated o/n with 5 μM DPC333 (ADAM10 and 17 inhibitor; Qian, M et al. Drug Metab Dispos, 2007. 35:p. 1916-1925). Macrophages were detached with accutase (Biolegend, 423201) followed by resuspension in FACS buffer (PBS, 2% FBS, 0.5 mM EDTA, pH 8.0) supplemented with 50 μg/ml Fc block (BD, 564220) and incubated for at least 20 min on ice. Next cells were stained for 1 h at 4° C. in the same buffer with a broad concentration range of the different anti-TREM2 antibodies followed by a washing step with PBS (250 g, 4° C., 3 min). […] After a second washing step with PBS (250 g, 4° C., 3 min), cells were fixed with fixation buffer (Biolegend, 420801) for 15 min at RT, washed again and fluorescence was assessed using a BD FACS Canto II (BD, V96300323) or a FacsCalibur flow cytometer. Median fluorescence intensities corresponding to the degree of TREM2 antibody bound to cells were evaluated using FlowJo software (Millipore INC).
# (§2) Individual values for each donor are given.
# [2] = biological target: T2, cyTREM2 ECD (19-174)-APP-Avi; experiment: SPR, label free kinetics
# Procedure: (§3) For a precise assessment of the binding affinities of the antibodies affinity-determination by measuring kinetic rate constants was performed by SPR. In addition a comparison to cynomolgus TREM2 was performed (Table 21).
# [3] = biological target: T3, hTREM2 ECD (19-174)-hFc; experiment: SPR, label free kinetics
# Procedure: as §3
# [4] = biological target: T4, hTREM2 ECD (19-174); experiment: SET screening
# Procedure: Serial dilutions of unlabeled antigen were prepared, starting with a concentration at least 10 times higher than the expected KD. Wells without antigen were used to determine Bmax values; wells containing only assay buffer were used to determine background.
# The data was evaluated with XLfit (IDBS) software applying customized fitting models. […] A constant amount of diluted BEL extract (containing borate buffer, EDTA and lysozyme) was equilibrated over night with different concentrations of antigen.
# [5] = biological target: T1, human TREM2 (hTREM2), expressed on cells; experiment: FACS, hM2A, donor 3
# Procedure: as §1, §2
# [6] = biological target: T1, human TREM2 (hTREM2), expressed on cells; experiment: cell-based or functional assay
# [7] = biological target: T5, cyTREM2 ECD (19-174)-hFc; experiment: S/BG on recombinant protein
# [8] = biological target: T6, hTREM2 IgSF-hTREM1 stalk-hFc; experiment: S/BG on recombinant protein
# [9] = biological target: T3, hTREM2 ECD (19-174)-hFc; experiment: S/BG on recombinant protein
# [10] = biological target: T4, hTREM2 ECD (19-174); experiment: SET
# [11] = biological target: T7, cynomolgus TREM2 (construct not stated); experiment: SET
# [12] = biological target: proteins of the protein panel profiling (3P), 25 in total; experiment: protein panel profiling (3P), ECL
# [13] = biological target: T1, human TREM2 (hTREM2), expressed on cells; experiment: FACS, hM2A macrophages
# Procedure: as §1, §2
# [14] = biological target: T1, human TREM2 (hTREM2), expressed on cells; experiment: FACS, hM2A, median of 4 donors
# Procedure: as §1, §2
# [15] = biological target: T1, human TREM2 (hTREM2), expressed on cells; experiment: cell-based or functional assay; remark: listed apart in the source
# [16] = biological target: T1, human TREM2 (hTREM2), expressed on cells; experiment: cell-based or functional assay; remark: listed apart in the source
# [17] = biological target: T8, cynomolgus TREM2 expressed on CHO cells; experiment: FACS, CHO-cyTREM2 cells
# Procedure: as §1
# [18] = biological target: T1, human TREM2 (hTREM2), expressed on cells; experiment: FACS, hM2A, donor 4
# Procedure: as §1, §2
# [19] = biological target: T1, human TREM2 (hTREM2), expressed on cells; experiment: FACS, hM2A, donor 1
# Procedure: as §1, §2
# [20] = biological target: T1, human TREM2 (hTREM2), expressed on cells; experiment: FACS, CHO-hTREM2 cells
# Procedure: as §1
# [21] = biological target: T1, human TREM2 (hTREM2), expressed on cells; experiment: FACS, CHO-hDAP12-hTREM2 cells
# [22] = biological target: T9, mTREM2 ECD (19-168)-His; experiment: SPR Biacore
# [23] = biological target: T2, cyTREM2 ECD (19-174)-APP-Avi; experiment: SPR Biacore
# [24] = biological target: T10, hTREM2 ECD (19-174)-His; experiment: SPR Biacore
# [25] = biological target: T1, human TREM2 (hTREM2), expressed on cells; experiment: FACS, CHO-DAP12-hTREM2 cells
# [26] = biological target: T3, hTREM2 ECD (19-174)-hFc; experiment: direct ELISA
# Procedure: Antigens were immobilized on microtiter plates (see Table 8). Plates were blocked and incubated with antibodies such as Fab containing crude E. coli lysates or purified Fab or IgG samples. Bound antibodies were detected using respective alkaline-phosphatase (AP) coupled secondary antibodies in combination with ‘AttoPhos’ fluorescence substrate. Multiple washing steps were performed between individual assay steps.
# [27] = biological target: T1, human TREM2 (hTREM2), expressed on cells; experiment: FACS, hM2A macrophages; remark: listed apart in the source
# [28] = biological target: T1, human TREM2 (hTREM2), expressed on cells; experiment: cell-based or functional assay; remark: listed apart in the source
Binder,EC50 [1] [nM],Kd [2] [nM],Kd [3] [nM],Kd [4] [nM],EC50 [5] [nM],"Fold TREM2 cell surface increase compared to isotype (hM2A, 100 nM o/n) [6] [fold]",S/BG [7],S/BG [8],S/BG [9],Kd [10] [nM],Kd [11] [nM],Cumulative binding ratio [12],EC50 [13] [nM],EC50 [14] [nM],Internalization compared to parental after 6 h [15],Internalization; fold over background after 6 h [15] [fold],TREM2 activation (fold in RGA) [16] [fold],EC50 [17] [nM],EC50 [18] [nM],EC50 [19] [nM],other results
B1,0.55,0.039,0.046,< 0.6,0.55,7.9,> 5,> 20,> 5,0.046,0.039,< 150,< 2,0.56,1.5 fold of parental,57.1,1,0.46,0.56,0.86,EC50 [20]: 0.2 nM
B2,,,,,,,,,,,,,,,,,,,,,EC50 [21]: 3.4 nM; Kd [22]: 0.9 nM; Kd [23]: 6.6 nM; Kd [24]: 12 nM; EC50 [25]: 3.4 nM; EC50 [26]: 2.4 nM; EC50 [27]: 37 nM
B3,,,,,,,,,,,,,,,,,,,,,EC50 [21]: 0.5 nM; RGA in THP-B5 cells (fold increase over BG) [28]: 2.1 fold; EC50 [27]: 0.7 nM
B4,0.54,0.004,0.003,< 0.6,0.54,5.1,> 5,> 20,> 5,0.003,0.004,< 150,< 2,0.59,0.7 fold of parental,33.3,1.3,0.65,0.64,0.73,EC50 [20]: 0.16 nM

# Source: patent US20250215080A1 (published 2025)
